# Source: PMC9966682, “Lactose and Galactose Promote the Crystallization of Human Galectin-10” (Molecules, 2023)
# Target: the molecule itself
# Assay: SEC; size-exclusion HPLC, Spherogel-TSK-2000SW; Gal-10 diluted to 100 μM, incubated 2 h at 4 °C; PBS–azide buffer (6.7 mM KH2PO4, 150 mM NaCl, 14 mM β-mercaptoethanol, 0.02% NaN3), pH 7.4; monomer–dimer equilibrium
protein,measurement,value
"Recombinant human Charcot–Leyden crystal (CLC) protein (natural protein, UniProt Q05315 1-142, looked up, Galectin-10 (Charcot-Leyden crystal protein), human; the introduction gives 142 amino-acid residues; also called Galectin-10; Gal-10; source: E. coli, bought: Cloud-Clone Corp., purified with Ni-nitrilotriacetic acid resin) MSLLPVPYTEAASLSTGSTVTIKGRPLACFLNEPYLQVDFHTEMKEESDIVFHFQVCFGRRVVMNSREYGAWKQQVESKNMPFQDGQEFELSISVLPDKYQVMVNGQSSYTFDHRIKPEAVKMVQVWRDISLTKFNVSYLKR",stoichiometry N,2
